Consider 1 substance from US20150376237A1, “POLYPEPTIDES FOR BLOOD BRAIN BARRIER TRANSPORT” (SAGETIS BIOTECH, SL, priority 2012, published 2015).

This data set deals with in vitro BBB model (bovine brain endothelial cells co-cultured with mouse mixed glial cells). Kind of data set: Fluorescently-labelled peptide in vitro BBB model crossing test. The conditions noted are these: fluorescent peptide, 20 μg/ml fluorophore in DMEM/F12, 60 min at 37° C.

Description: Mouse primary cultures of mixed glial cells are seeded on a 24-well plate and bovine brain endothelial cells are cultured on collagen-coated inserts in another plate. After three days, the inserts are moved into astrocyte-containing plates and cultured for a further three days. To assess the integrity of the in vitro BBB, trans-endothelial electrical resistance (TEER) is measured on the day of the experiment. TEER values higher than 200Ω/cm^2 are considered acceptable.
Peptides are applied at 20 μg/ml of fluorophore in the luminal side of the inserts and placed in wells filled with Ringer-Hepes buffer (the composition of Ringer-Hepes buffer is described above). After 1 h incubation, samples from the upper and lower compartments are collected and measured using a fluorimeter. […]
All samples (t=0 up, t=0 down, t=60 up and t=60 down) from each condition (testing peptides and negative control) are plated in black 96-well microplates as well as the corresponding standard curves. Fluorescence is measured using a multi-well plate reader. […]
The endothelial permeability coefficient values for LY and the tested peptide are also determined. […] The increment in cleared volume between the incubation times is calculated by dividing the amount of transported compound by the donor chamber concentration and calculating the total volume cleared, as shown below: […]

In the case of “SEQ ID NO: 12: GDAAAAKAAKAAAKAAADGY, rigid polypeptide, single domain binder (Rigid_1)”, the “Percentage BBB crossing” value is listed as “Percentage BBB crossing: 7.51%”.
